This passage reports Kd results from PMC6194859.

For this data set, the target named is T1, PhoB~P (phosphorylated PhoB) (Escherichia coli) (UniProt P0AFJ5).
T1 sequence: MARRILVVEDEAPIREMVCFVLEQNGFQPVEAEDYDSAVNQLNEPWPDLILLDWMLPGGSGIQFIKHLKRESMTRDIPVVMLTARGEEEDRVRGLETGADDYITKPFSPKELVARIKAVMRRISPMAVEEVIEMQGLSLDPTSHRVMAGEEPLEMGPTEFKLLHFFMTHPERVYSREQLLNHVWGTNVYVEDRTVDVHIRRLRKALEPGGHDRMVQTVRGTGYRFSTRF
In words: EMSA. The settings on record: phosphoramidate-phosphorylated PhoB, 50 mM Tris pH 7.6, 200 mM NaCl, 0.1 mg/ml BSA, 2 mM MgCl2, 1 mM DTT, 5% glycerol, ~0.1 uM DNA (mM in the source), 15 uM nonfluorescent competitor dsDNA, 30 min, 12% ….

With “CTGCAGGAAGAAGGAAAACGCTGGTTTGACAATCTTGCCGCTAACGGAAAAATCGAAATGGCCTGGCAGGAAACTTTCTGGGCGCATGGCTTTGGCAAAGTCACCGATAAATTTGGCGTACCGTGGATGATTAATGTCGTCAAACAACAACCAACGCAATAACCCGCCGGGAGGCCCGCCCTCCCGCACTGTCATCGAATTCCCGTTAACTCTTCATCTGTTAGTCACTTTTAATTAACCAAATCGTCACAATAATCCGCCACGATGGAGCCACTTTTTTAGGGAGGCTGCATCATGCAAACGATTTGATCTAGAAATAATTTTGTTTAACTTTAAGAAGGAGATATACAAATGGTGAGC (double strand) [phnC promoter]”, for the setting “Hill fit”, the Kd (as a rule, the free concentration of one partner at which half of the binding sites on the other are occupied at equilibrium, for simple one-to-one binding) was 0.0017 mM.
In the case of “GCCACGGAAATCAATAACCTGAAGATATGTGCGACGAGCTTTTCATAAATCTGTCATAAATCTGACGCATAATGACGTCGCATTAATGATCGCAACCTATTTATTACAACAGGGCTGATCTAGAAATAATTTTGTTTAACTTTAAGAAGGAGATATACAAATGGTGAGC (double strand) [phoB promoter]”, the Kd (two-site per DNA binding model) turned out to be 0.00025 mM.
